Test results: article PMC11955523, “Cryo-TEM structure of β-glucocerebrosidase in complex with its transporter LIMP-2” (Nature Communications, 2025)

T1: β-glucocerebrosidase (GCase), untagged wild type (human, UniProt P04062 40-536, N-glycans at N19, N59, N146, N270)
T1 construct: β-glucocerebrosidase (GCase), human, gene GBA1, wild type, expressed from the commercial plasmid pCMV3-GBA-wt; also called GCase wt; wt GCase; source: HEK 293F-sL2 cells transfected with pCMV3-GBA-wt, secreted in complex with sLIMP-2, purified (Ni-NTA, SEC); HEK 293F cells co-transfected with sLIMP-2 plasmids, in conditioned medium
T1 sequence (looked up): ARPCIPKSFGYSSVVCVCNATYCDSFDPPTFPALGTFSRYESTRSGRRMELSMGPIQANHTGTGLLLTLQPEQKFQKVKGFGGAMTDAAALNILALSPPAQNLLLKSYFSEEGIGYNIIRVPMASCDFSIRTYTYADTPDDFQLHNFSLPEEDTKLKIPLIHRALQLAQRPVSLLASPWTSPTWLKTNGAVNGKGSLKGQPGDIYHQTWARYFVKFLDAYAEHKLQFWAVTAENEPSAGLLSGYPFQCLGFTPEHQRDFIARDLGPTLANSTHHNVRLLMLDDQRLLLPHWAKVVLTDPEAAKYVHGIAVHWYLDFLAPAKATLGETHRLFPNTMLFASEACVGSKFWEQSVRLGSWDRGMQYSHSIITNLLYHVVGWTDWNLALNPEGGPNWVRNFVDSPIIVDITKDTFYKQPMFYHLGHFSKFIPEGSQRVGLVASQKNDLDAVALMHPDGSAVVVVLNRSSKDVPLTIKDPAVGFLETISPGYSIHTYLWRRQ

T2: recombinant GCase with C-terminal His10-tag (for cross-linking with SapC) (human, UniProt P04062 40-536)
T2 construct: β-glucocerebrosidase (GCase), with a small spacer and a TEV protease cleavage site before the C-terminal His10-tag; no TEV cleavage is described; source: FreeStyle 293 HEK cells, stably transfected (pcDNA3.1(+)), purified from cell media (HisTrap)
T2 sequence (looked up): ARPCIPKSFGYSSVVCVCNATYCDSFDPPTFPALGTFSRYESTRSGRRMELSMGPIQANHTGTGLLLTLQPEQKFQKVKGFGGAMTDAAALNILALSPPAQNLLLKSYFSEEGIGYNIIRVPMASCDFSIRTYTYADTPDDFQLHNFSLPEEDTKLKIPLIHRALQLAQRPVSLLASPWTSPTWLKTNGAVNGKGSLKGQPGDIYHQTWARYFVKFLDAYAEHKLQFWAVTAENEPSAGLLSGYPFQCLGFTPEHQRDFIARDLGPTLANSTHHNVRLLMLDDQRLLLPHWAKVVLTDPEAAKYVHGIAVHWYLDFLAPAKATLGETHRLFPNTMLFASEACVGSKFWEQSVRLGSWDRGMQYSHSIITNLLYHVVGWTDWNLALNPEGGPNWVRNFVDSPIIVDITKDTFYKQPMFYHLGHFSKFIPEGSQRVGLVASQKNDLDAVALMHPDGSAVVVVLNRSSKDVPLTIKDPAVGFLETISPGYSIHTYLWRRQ


Experiments:
Conditions in all cases: both partners purified
[1] = target: T1, β-glucocerebrosidase (GCase), untagged …; assay: cryo-EM structure; GCase/sLIMP-2/PMb1/PMb2 complex from SEC, 0.6 mg/ml, single particle analysis, 3.7 Å global resolution
[2] = target: T3, β-glucocerebrosidase (GCase), untagged wild type (human, UniProt P04062, N-glycans at N19, N59, N146, N270); assay: as above
T3 construct: β-glucocerebrosidase (GCase), human, gene GBA1, wild type, expressed from the commercial plasmid pCMV3-GBA-wt; also called GCase wt; wt GCase; source: HEK 293F-sL2 cells transfected with pCMV3-GBA-wt, secreted in complex with sLIMP-2, purified (Ni-NTA, SEC); HEK 293F cells co-transfected with sLIMP-2 plasmids, in conditioned medium

[3] = target: T4, GCase used for size exclusion chromatography with Nb1 and Nb6 (human, UniProt P04062); assay: SEC; 20 µM GCase mixed with 100 µM Nb1, Nb6 or both; Superdex 200 Increase 5/150 GL, 10 mM MES, 100 mM NaCl, 1 mM DTT, 5% glycerol, pH 5.2, 12 °C
T4 construct: β-glucocerebrosidase (GCase); it may be the same as m8 or another recombinant GCase

[4] = target: T2, recombinant GCase with C-terminal …; assay: cross-linking; GCase 16.3-20.0 µM and SapC 32.5 µM in McIlvaine buffer pH 6.0 with 10 mM NaCl (some reactions with 0.1% Triton X-100 and 0.25% sodium taurocholate); BS3(d0)/BS3(d4) or DTSSP at 1 mM, 1 h at room temperature; gel bands read by mass spectrometry

binding result [2] | binding result [3] | Binder | other results
 |  | soluble LIMP-2 shuttle construct (sLIMP-2), secreted LIMP-2 ectodomain, wild type (domain or fragment, human, UniProt Q14108 36-431, looked up, N-glycans at N45, N68, N105, N206, N224, N249, N304, N325, N412, lysosomal integral membrane protein type-2 (LIMP-2), human, gene SCARB2, amino acids 36-431 (ectodomain); the 10xHis tag is TEV-cleavable, and no cleavage is described; also called wt sLIMP-2; lysosomal integral membrane protein type-2; source: HEK 293F cells transfected, in conditioned medium; not shown: His10, C-terminal, kept) SIEKKIVLRNGTEAFDSWEKPPLPVYTQFYFFNVTNPEEILRGETPRVEEVGPYTYRELRNKANIQFGDNGTTISAVSNKAYVFERDQSVGDPKIDLIRTLNIPVLTVIEWSQVHFLREIIEAMLKAYQQKLFVTHTVDELLWGYKDEILSLIHVFRPDISPYFGLFYEKNGTNDGDYVFLTGEDSYLNFTKIVEWNGKTSLDWWITDKCNMINGTDGDSFHPLITKDEVLYVFPSDFCRSVYITFSDYESVQGLPAFRYKVPAEILANTSDNAGFCIPEGNCLGSGVLNVSICKNGAPIIMSFPHFYQADERFVSAIEGMHPNQEDHETFVDINPLTGIILKAAKRFQINIYVKKLDDFVETGDIRTMVFPVMYLNESVHIDKETASRLKSMINT | binding result [1]: binds
binds |  | pro-macrobody PMb2 (nanobody Nb6, CA16669, fused to maltose binding protein) (VHH, nanobody Nb6 (CA16669) raised against GCase; proline-proline linker, told in words; The N-terminal pelB-10xHis-MBP was removed with 3C protease; Only the nanobody domain is modelled in PDB 9FJF; also called PMbs; source: E. coli MC1061, purified (Ni-NTA, 3C cleavage, second IMAC, SEC); not shown: His10, N-terminal, cleaved; MBP, N-terminal, cleaved) VHH: QVQLVESGGGLVQPGGSLRLSCAASGSIFSINTMGWYRQAPGKEREMVAYIITFGSTNYADSVKGRFTISGDNANNTMWLQMNSLKPEDTAVYYCYAAIRPTDSSTYTSYWGQGTQVTVPP | 
 | binds | nanobody Nb6 (CA16669) against GCase (VHH, nanobody Nb6 (CA16669); they are, as the nanobody domain of m4, in PDB 9FJF; Encoded in a pHEN29 vector) VHH: QVQLVESGGGLVQPGGSLRLSCAASGSIFSINTMGWYRQAPGKEREMVAYIITFGSTNYADSVKGRFTISGDNANNTMWLQMNSLKPEDTAVYYCYAAIRPTDSSTYTSYWGQGTQVTVPP | 
binds |  | pro-macrobody PMb1 (nanobody Nb1, CA16655, fused to maltose binding protein) (VHH, nanobody Nb1 (CA16655) raised against GCase; proline-proline linker, told in words; The N-terminal pelB-10xHis-MBP was removed with 3C protease; the C-terminal MBP is part of the pro-macrobody and was detected by anti-MBP blot; By my reading of the printed primers the C-terminal MBP begins at LVIWING after the PP linker and ends at KDAQT followed by PGA; Only the nanobody domain is modelled in …) VHH: QVQLVESGGGLVQPGGSLRLSCAASGFTLDYYAIGWFRQAPGKEREGVSCISSSDGSTYYADSAKGRFTISRDNAKNTVYLQMNSLKPEDTAVYYCATDRGQCTYYSSGYYRDLRWYDYWGQGTQVTVPP | 
 | binds | nanobody Nb1 (CA16655) against GCase (VHH, nanobody Nb1 (CA16655); they are in PDB 9ENA and, as the nanobody domain of m3, in PDB 9FJF; Encoded in a pHEN29 vector; also called Nbs1) VHH: QVQLVESGGGLVQPGGSLRLSCAASGFTLDYYAIGWFRQAPGKEREGVSCISSSDGSTYYADSAKGRFTISRDNAKNTVYLQMNSLKPEDTAVYYCATDRGQCTYYSSGYYRDLRWYDYWGQGTQVTVSS | 
 |  | Saposin C (SapC) (natural protein, Homo sapiens, UniProt P07602 311-390, looked up, Saposin C, Homo sapiens, the cut product of prosaposin; synthetic gene, codon optimised for E. coli, in pET-28a(+); The His6-tag is followed by a TEV protease cleavage site; no cleavage is described in the purification; source: E. coli BL21(DE3) or BL21(DE3)pLysS, purified (HisTrap, Superdex 75)) SDVYCEVCEFLVKEVTKLIDNNKTEKEILDAFDKMCSKLPKSLSEECQEVVDTYGSSILSILLEEVSPELVCSMLHLCSG | binding result [4]: binds
